Here are results for ten molecules from article PMC8914392, “Biochemical and structural characterizations of thioredoxin reductase selenoproteins of the parasitic filarial nematodes Brugia malayi and Onchocerca volvulus” (Redox Biology, 2022).

Like-named read-outs stand apart in the source and are kept apart here.

Data set [1] relates to T1, OvTrxR (isoform D).
T1 construct: gene TrxR; pABC2a, N-terminal His-SUMO tag removed; E. coli C321.deltaA; Sec enriched; homodimer
As to the kind of experiment: DTNB reduction, A412, dose-response fit. The note with it: 25 nM enzyme, 30 min preincubation with 0.25 mM NADPH and 0.1 mg/ml BSA, 1 mM DTNB, pH 7.5; for IC50: read-out: Apparent IC50 (μM) ^a. Format: biochemical, Onchocerca volvulus. An excerpt:
DTNB reduction, A412, dose-response fit on OvTrxR (isoform D)

The target in data set [2] is T2, BmTrxR (isoform D) (Brugia malayi, UniProt A0A1I9G0T9).
T2 construct: gene bma-trxr-1; full-length isoform D, 598 residues, Grx-like domain 1-102 and TrxR domain 103-598, Sec at 597; pABC2a, N-terminal His-SUMO tag removed; E. coli C321.deltaA; homodimer
T2 sequence (A0A1I9G0T9 116-713): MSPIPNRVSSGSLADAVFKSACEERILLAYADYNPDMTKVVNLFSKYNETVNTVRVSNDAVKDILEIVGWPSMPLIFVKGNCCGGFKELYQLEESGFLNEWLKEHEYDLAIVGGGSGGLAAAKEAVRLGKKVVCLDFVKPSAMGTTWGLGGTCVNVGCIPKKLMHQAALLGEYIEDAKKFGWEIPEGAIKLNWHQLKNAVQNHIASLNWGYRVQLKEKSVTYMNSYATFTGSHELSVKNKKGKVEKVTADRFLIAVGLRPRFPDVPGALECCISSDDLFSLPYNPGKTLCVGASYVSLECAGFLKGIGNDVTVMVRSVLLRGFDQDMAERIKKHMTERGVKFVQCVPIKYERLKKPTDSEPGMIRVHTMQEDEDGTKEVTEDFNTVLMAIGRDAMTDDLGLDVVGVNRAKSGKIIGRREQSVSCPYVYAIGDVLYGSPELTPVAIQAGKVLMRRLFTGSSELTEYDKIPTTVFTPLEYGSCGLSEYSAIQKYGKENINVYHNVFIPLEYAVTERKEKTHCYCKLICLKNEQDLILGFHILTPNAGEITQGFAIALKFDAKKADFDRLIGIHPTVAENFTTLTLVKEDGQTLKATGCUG
As to the kind of experiment: DTNB reduction, A412, dose-response fit. In kind it is biochemical. The note with it: for IC50: read-out: Apparent IC50 (μM) ^a. From the text: DTNB reduction, A412, dose-response fit on BmTrxR (isoform D)

Data set [3] has as its target thioredoxin reductase from Brugia malayi, isoform D (Brugia malayi).
In data set [4] the target is thioredoxin reductase from Onchocerca volvulus, isoform D (Onchocerca volvulus).
Data set [5] has as its system T1, OvTrxR (isoform D). Put plainly: TNB formation at A412. The note with it: 250 μM NADPH, 10 nM enzyme, pH 7.5. In kind it is biochemical, Onchocerca volvulus. An excerpt: TNB formation at A412 on OvTrxR (isoform D)
The target in data set [6] is T3, hTrxR1 (Homo sapiens, UniProt Q16881).
T3 construct: gene TXNRD1; recombinant selenoprotein, GCUG C-terminus, cytosolic form; homodimer
T3 sequence (Q16881 151-649): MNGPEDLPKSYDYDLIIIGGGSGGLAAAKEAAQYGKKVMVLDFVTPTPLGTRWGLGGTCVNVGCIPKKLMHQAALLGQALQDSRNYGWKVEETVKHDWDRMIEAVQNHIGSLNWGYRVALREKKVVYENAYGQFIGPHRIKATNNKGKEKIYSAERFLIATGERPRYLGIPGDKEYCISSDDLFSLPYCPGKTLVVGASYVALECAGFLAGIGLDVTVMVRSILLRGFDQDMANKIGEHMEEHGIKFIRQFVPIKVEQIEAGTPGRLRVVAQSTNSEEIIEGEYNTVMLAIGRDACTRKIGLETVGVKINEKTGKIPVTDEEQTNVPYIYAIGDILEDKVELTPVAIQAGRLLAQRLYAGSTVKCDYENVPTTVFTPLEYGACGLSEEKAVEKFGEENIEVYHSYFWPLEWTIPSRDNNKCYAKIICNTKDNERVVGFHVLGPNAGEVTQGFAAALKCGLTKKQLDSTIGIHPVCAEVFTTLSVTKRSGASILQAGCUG
As to the kind of experiment: TNB formation at A412. Format: biochemical. The conditions noted are these: NADPH, pH 7.5. From the text: TNB formation at A412 on hTrxR1

The target in data set [7] is T2, BmTrxR (isoform D). As to the kind of experiment: ThermoFAD. Format: binding. The note with it: 1 mM NADPH; Tm without NADPH 64.5 °C.
Substrate in data set [8]: O=C(O)c1cc(SSc2ccc([N+](=O)[O-])c(C(=O)O)c2)ccc1[N+](=O)[O-]
Put plainly: purified protein. The note with it: 250 μM NADPH, 20 nM enzyme, pH 7.5.

auranofin: the IC50 in data set [1] (covalent) was 0.0032 µM; in data set [2] (25 nM enzyme, 30 min preincubation with 0.25 mM NADPH and 0.1 mg/ml BSA, 1 mM DTNB, pH 7.5, covalent) it was 0.0024 µM.
In the case of TRi-2, the “Apparent IC50 (μM) ^a” value was 1.5 µM in data set [1] (unreliable (above the printed inhibitor range 1 nM-1 μM)); 1.8 µM in data set [2] (25 nM enzyme, 30 min preincubation with 0.25 mM NADPH and 0.1 mg/ml BSA, 1 mM DTNB, pH 7.5, unreliable (above the printed inhibitor range 1 nM-1 μM)).
With “Brugia malayi thioredoxin 2 (natural protein)”, the Km of the reductase for the Trx, Trx-linked insulin disulfide reduction assay (NADPH consumption at A340) in data set [3] was 4.7 µM.
For “Onchocerca volvulus thioredoxin 1 (natural protein)”, the Km of the reductase for the Trx, Trx-linked insulin disulfide reduction assay (NADPH consumption at A340) in data set [3] worked out at 1.1 µM; in data set [4], 1.6 µM.
As for “Onchocerca volvulus thioredoxin 2 (natural protein)”, the Km of the reductase for the Trx, Trx-linked insulin disulfide reduction assay (NADPH consumption at A340) in data set [3] was found to be 9.6 µM; in data set [4], 4.5 µM.
Turning to “Brugia malayi thioredoxin 1 (natural protein)”, the Km of the reductase for the Trx, Trx-linked insulin disulfide reduction assay (NADPH consumption at A340) turned out to be 2.7 µM in data set [3] and 2.4 µM in data set [4].
As to `O=C(O)c1cc(SSc2ccc([N+](=O)[O-])c(C(=O)O)c2)ccc1[N+](=O)[O-]` [DTNB, 5,5′-dithiobis-(2-nitrobenzoic acid)], the Km in data set [5] turned out to be 170 ± 12 µM; in data set [6], 61 ± 8.4 µM.
With NADPH, in data set [7], the Tm came to 48.3 ± 0.6 °C.
Turning to `COc1ccc([N+](=O)[O-])c(S(=O)(=O)c2ccc(Cl)cc2)n1` [TRi-1], the IC50 in data set [1] was found to be 0.012 µM; in data set [2], 0.013 µM.

B1: BmTrxR (isoform D) (Brugia malayi) (protein)
chain: T2 sequence (A0A1I9G0T9 116-713)
In the case of B1, in data set [8], the Km was 70 ± 7.8 µM, the kcat was determined as 20 ± 0.95 s⁻¹ and the kcat/Km was 283000 M⁻¹ s⁻¹.
